Reference: PMC13368180, “In silico design and validation of high-affinity RNA aptamers for SARS-CoV-2 comparable to neutralizing antibodies”
Positions count from the first letter of the chain named.

B1: Ta (RBD-PB6-Ta) (structured_RNA)
RNA: GGCGACAUUUGUAAUUCCUGGACCGAUACUUCCGUCAGGACAGAGGUUGCCA
B2: TaG34A (structured_RNA)
RNA: B1 RNA with G34A
B3: TaC23A (structured_RNA)
RNA: B1 RNA with C23A
B4: TaC23G (structured_RNA)
RNA: B1 RNA with C23G
B5: TaC23U (structured_RNA)
RNA: B1 RNA with C23U
B6: TaG34U (structured_RNA)
RNA: B1 RNA with G34U
B7: TaG34C (structured_RNA)
RNA: B1 RNA with G34C

Biological target: SARS-CoV-2 spike RBD (SARS-CoV-2, UniProt P0DTC2 319-541)
Test: EMSA
Conditions: protein: commercial

Row | Binder | binding result (hairpin) | Kd [µM]
1 | GGUCCUGGACCGAUACUUCCGUCAGGACCA (structured_RNA) [Tc (RBD-PB6-Tc)] | no binding | 
2 | B1 |  | 111
3 | B2 |  | 55.5 ± 4.1
4 | B3 |  | 55.7 ± 9.8
5 | B4 |  | 168
6 | B5 |  | 48.7 ± 2
7 | B6 |  | 54.7 ± 2
8 | B7 |  | 33.5 ± 1.6
